Results: patent publication US20210388337

Tests used:
Assay in all cases: stopped-flow tryptophan fluorescence, avidin 0.5 µM, biotin-protein 5.0 µM
Avidin-pCBMA109, P02701 = target: Avidin-pCBMA109, P02701
Avidin-pCBMA121, P02701 = target: Avidin-pCBMA121, P02701
Avidin-pCBMA152, P02701 = target: Avidin-pCBMA152, P02701
Avidin-pCBMA170, P02701 = target: Avidin-pCBMA170, P02701
Avidin-pCBMA182, P02701 = target: Avidin-pCBMA182, P02701
Avidin-pCBMA232, P02701 = target: Avidin-pCBMA232, P02701
Avidin-pCBMA56, P02701 = target: Avidin-pCBMA56, P02701
Avidin-pCBMA58, P02701 = target: Avidin-pCBMA58, P02701
Native avidin, P02701 = target: Native avidin, P02701
Native avidin, P02701, sequence (P02701 25-152): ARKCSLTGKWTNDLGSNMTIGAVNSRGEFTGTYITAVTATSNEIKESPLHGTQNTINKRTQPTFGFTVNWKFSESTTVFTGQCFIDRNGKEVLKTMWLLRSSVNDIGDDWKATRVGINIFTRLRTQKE

Avidin-pCBMA56, P02701, sequence (P02701 25-152): as above
Avidin-pCBMA152, P02701, sequence (P02701 25-152): as above
Avidin-pCBMA232, P02701, sequence (P02701 25-152): as above
Avidin-pCBMA58, P02701, sequence (P02701 25-152): as above
Avidin-pCBMA109, P02701, sequence (P02701 25-152): as above
Avidin-pCBMA170, P02701, sequence (P02701 25-152): as above
Avidin-pCBMA121, P02701, sequence (P02701 25-152): as above
Avidin-pCBMA182, P02701, sequence (P02701 25-152): as above

B1: Biotin-HRP (protein)
chain: QLTPTFYDNSCPNVSNIVRDTIVNELRSDPRIAASILRLHFHDCFVNGCDASILLDNTTSFRTEKDAFGNANSARGFPVIDRMKAAVESACPRTVSCADLLTIAAQQSVTLAGGPSWRVPLGRRDSLQAFLDLANANLPAPFFTLPQLKDSFRNVGLNRSSDLVALSGGHTFGKNQCRFIMDRLYNFSNTGLPDPTLNTTYLQTLRGLCPLNGNLSALVDFDLRTPTIFDNKYYVNLEEQKGLIQSDQELFSSPNATDTIPLVRSFANSTQTFFNAFVEAMDRMGNITPLTGTQGQIRLNCRVVNSNS
- k (kobs, observed first-order rate constant) (Avidin-pCBMA109, P02701): 0.026 s⁻¹
- k (kobs, observed first-order rate constant) (Avidin-pCBMA121, P02701): 0.218 s⁻¹
- k (kobs, observed first-order rate constant) (Avidin-pCBMA152, P02701): 0.025 s⁻¹
- k (kobs, observed first-order rate constant) (Avidin-pCBMA170, P02701): 0.209 s⁻¹
- k (kobs, observed first-order rate constant) (Avidin-pCBMA182, P02701): 0.025 s⁻¹
- k (kobs, observed first-order rate constant) (Avidin-pCBMA232, P02701): 0.196 s⁻¹
- k (kobs, observed first-order rate constant) (Avidin-pCBMA56, P02701): 0.261 s⁻¹
- k (kobs, observed first-order rate constant) (Avidin-pCBMA58, P02701): 0.028 s⁻¹
- k (kobs, observed first-order rate constant) (Native avidin, P02701): 5.03 s⁻¹
